According to patent US20220073604A1 (ARGENX BVBA, published 2022):
Where “and” joins values, the source holds several entries; their conditions need not be identical. Equal values may be shown once. Blank lines part the entries; values can stand above or below the binder they belong to.

Experiments:
[1] = target: IL-6 (bact-hIL-6, euk-hIL-6 and bact-cy IL-6; 'average binding' of Table 21); assay: average binding level in the off-rate screen (unit not given; n = 1)
[2] = target: T1, bacterially produced cynomolgus monkey IL-6 (cynomolgus monkey, UniProt P79341 28-212, limits assumed); assay: off-rate of Fab 111A7 variant on bact-cy IL-6 (binding kinetics, SPR presumed; n = 1)
T1 construct: also called bact-cy IL-6; HIS-cyIL-6

[3] = target: T2, bacterially produced human IL-6 (human, UniProt P05231 30-212); assay: SPR; periplasmic fraction
T2 construct: also called bactIL-6; prokaryotic IL-6
Procedure: (§1) From the washing phase the off-rate (kd) was determined, while from the injection phase the on-rate (ka) was calculated using the concentration and off-rate as parameters.

[4] = target: T3, eukaryotically produced human IL-6 (human, UniProt P05231 30-212); assay: SPR; periplasmic fraction
T3 construct: also called eukIL-6; Euk IL-6
Procedure: as §1

[5] = target: T2, bacterially produced human IL-6; assay: SPR; periplasmic fraction; ratio bact to euk IL-6
Procedure: as §1

human IL-6 [6] = target: T4, human IL-6 (human, UniProt P05231 30-212); assay: SPR; periplasmic fraction; average of the IL-6 channels; design: unit not given here
T4 construct: Used where the text says only IL-6 or human IL-6 (crystals: rh IL-6 from Immunotools; cell assays) and for values averaged over the bacterial and eukaryotic IL-6 channels; also called interleukin-6; rh IL-6

human IL-6 [7] = target: T4, human IL-6; assay: cell-based or functional assay
[8] = target: IL-6 surfaces of Table 8 (Bact, euk, cyno), average; assay: SPR (Biacore), off-rate screen
[9] = target: T5, bacterially produced human IL-6 (human, UniProt P05231 30-212); assay: SPR (Biacore), purified Fab
T5 construct: Immobilised on the Biacore chip; also called BACT IL-6 (2-1); bactIL-6

[10] = target: T6, eukaryotically produced human IL-6 (human, UniProt P05231 30-212); assay: SPR (Biacore), purified Fab
T6 construct: Immobilised on the Biacore chip; also called Euk IL-6; EUK IL-6 (3-1)

- average binding [1]: 42
- koff [2]: 9.46e-05 s⁻¹
B1: Fab 111A7 with the CDR3 methionine changed to C (Fab, V domains shown)
VH: EVQLLESGGGLVQPGGSLRLSCAASGFTFSSYAMSWVRQAPGKGPEWVSRISAGGGSTYYGDSVKGRFTISRDNSKNTLYLQMNSLRAEDTAVYYCANRAGWGCGDYWGQGTLVTVSS
VL: QTVVTQEPSFSVSPGGTVTLTCGLSSGSVTASNYPGWYQQTPGQAPRALIYSTNDRHSGVPDRFSGSISGNKAALTITGAQAEDEADYYCALDIGDITEFGGGTQLTVL

- average binding [1]: 137
- koff [2]: 0.000207 s⁻¹
B2: Fab 111A7 with the CDR3 methionine changed to N (Fab, V domains shown)
VH: EVQLLESGGGLVQPGGSLRLSCAASGFTFSSYAMSWVRQAPGKGPEWVSRISAGGGSTYYGDSVKGRFTISRDNSKNTLYLQMNSLRAEDTAVYYCANRAGWGNGDYWGQGTLVTVSS
VL: QTVVTQEPSFSVSPGGTVTLTCGLSSGSVTASNYPGWYQQTPGQAPRALIYSTNDRHSGVPDRFSGSISGNKAALTITGAQAEDEADYYCALDIGDITEFGGGTQLTVL

- average binding [1]: 81
- koff [2]: 0.00417 s⁻¹
B3: Fab 111A7 with the CDR3 methionine changed to K (Fab, V domains shown)
VH: EVQLLESGGGLVQPGGSLRLSCAASGFTFSSYAMSWVRQAPGKGPEWVSRISAGGGSTYYGDSVKGRFTISRDNSKNTLYLQMNSLRAEDTAVYYCANRAGWGKGDYWGQGTLVTVSS
VL: QTVVTQEPSFSVSPGGTVTLTCGLSSGSVTASNYPGWYQQTPGQAPRALIYSTNDRHSGVPDRFSGSISGNKAALTITGAQAEDEADYYCALDIGDITEFGGGTQLTVL

- average binding [1]: 26
- koff [2]: 0.000177 s⁻¹
B4: Fab 111A7 with the CDR3 methionine changed to W (Fab, V domains shown)
VH: EVQLLESGGGLVQPGGSLRLSCAASGFTFSSYAMSWVRQAPGKGPEWVSRISAGGGSTYYGDSVKGRFTISRDNSKNTLYLQMNSLRAEDTAVYYCANRAGWGWGDYWGQGTLVTVSS
VL: QTVVTQEPSFSVSPGGTVTLTCGLSSGSVTASNYPGWYQQTPGQAPRALIYSTNDRHSGVPDRFSGSISGNKAALTITGAQAEDEADYYCALDIGDITEFGGGTQLTVL

- average binding [1]: 64
- koff [2]: 0.000121 s⁻¹
B5: Fab 111A7 with the CDR3 methionine changed to R (Fab, V domains shown)
VH: EVQLLESGGGLVQPGGSLRLSCAASGFTFSSYAMSWVRQAPGKGPEWVSRISAGGGSTYYGDSVKGRFTISRDNSKNTLYLQMNSLRAEDTAVYYCANRAGWGRGDYWGQGTLVTVSS
VL: QTVVTQEPSFSVSPGGTVTLTCGLSSGSVTASNYPGWYQQTPGQAPRALIYSTNDRHSGVPDRFSGSISGNKAALTITGAQAEDEADYYCALDIGDITEFGGGTQLTVL

- average binding [1]: 144
- koff [2]: 0.000203 s⁻¹
B6: Fab 111A7 with the CDR3 methionine changed to F (Fab, V domains shown)
VH: EVQLLESGGGLVQPGGSLRLSCAASGFTFSSYAMSWVRQAPGKGPEWVSRISAGGGSTYYGDSVKGRFTISRDNSKNTLYLQMNSLRAEDTAVYYCANRAGWGFGDYWGQGTLVTVSS
VL: QTVVTQEPSFSVSPGGTVTLTCGLSSGSVTASNYPGWYQQTPGQAPRALIYSTNDRHSGVPDRFSGSISGNKAALTITGAQAEDEADYYCALDIGDITEFGGGTQLTVL

- koff [3]: 7.71e-05 s⁻¹
- koff [4]: 3.5e-05 s⁻¹
- ratio bact/euk [5]: 1
- average binding (human IL-6 [6]): 43
B7: Fab 28B6 (Fab, V domains shown)
VH: QVQLVESGGGLVQPGGSLRLSCAASGFTFSNYYMTWVRQAPGKGLEWVSSIYSFSGDTAYADSVKGRFTISRDNAKNTLYLQMNSLKSEDTAVYYCTRNLGGVVVTTNGYDYWGQGTQVTVSS
VL: DIQLTQSPSSLSASLGDRVTITCQASQSISTELSWYQQKPGQTPKLLIYGASRLQTGVPARFSGSGSGTSFTLTISGLEAEDLATYYCLQDYSWPYSFGSGTRL
notes: Fab; also called 28f3(28B6)

B8: 68F2 antibody (antibody, V domains shown)
VH: EVQLQESGPGLVKPSQTLSLTCTVSGGSITTRYYAWSWIRQPPGKGLEWMGVIDYDGDTYYSPSLKSRTSISWDTSKNQFSLQLSSVTPEDTAVYYCARDPDVVTGFHYDYWGQGTQVTVSS
VL: QSALTQPPLVSGTPGQTVTISCAGANNDIGTYAYVSWYQQLPGTAPKLLIYKVTTRASGIPSRFSGSKSGNTASLTISGLQSEDEADYYCASYRNFNNAVFGRGTHLTVLG
- IC50, growth of IL-6-dependent 7TD1 cells with 75 pg/ml human IL-6 (human IL-6 [7]): < 0.001 nM

B9: 133E5 (antibody, V domains shown)
VH: QVQLQESGPGLVKPSQTLSLTCTVSGGSITSRYYAWSWIRQPPGKGLEWIGVIDYDGDTYYSPSLKSRVTISWDTSKNQFSLKLSSVTPEDTAVYYCARDPDVVTGFHYDYWGQGTQVTVSS
VL: QSALTQPPSVSGSPGQTVTISCAGANNDIGTYAYVSWYQQLPGTAPKLMIYKVTTRASGIPDRFSGSKSGNTASLTISGLQAEDEADYYCASYRNFNNAVFGRGTKLTVL
- IC50, growth of IL-6-dependent 7TD1 cells with 75 pg/ml human IL-6 (human IL-6 [7]): < 0.001 nM

- Average binding (RU) [8]: 773 RU and 770 RU and 873 RU
B10: 55H1 (Fab, V domains shown)
VH: EVQLVESGGGLVQPGGSLRLSCAASGFTFSSYAMSWVRQAPGKGLEWVSRISSGGISTYYADSVKGRFTISRDNAKNTLYLQMNSLKPEDTAVYYCVRYAWGVQWAFDFWGQGTQVTVSS
VL: AQSVVTQPPSVSGSPGKTVTISCAGTSSDVGYGNYVSWYQQLPGMAPKLLIYDVSKRASGIADRFSGSKSGNTASLTISGLQSEDEADYVCASYRRGGTAVFGGGTHLTVLG

- Average binding (RU) [8]: 635 RU
B11: 61H7 (Fab, V domains shown)
VH: EVQLVESGGGLVQPGGSLRLSCAASGFTFSSYRMYWVRQPPGKGLEWVSAISAGGGSTYYGDSVKGRFTISRDNAKNTVYLQMNSLKPEDTAVYYCANRAGWGMGDYWGQGTQVTVSS
VL: QTVVTQEPSLSVSPGGTVTLTCGLSSGSVTASNYPGWFQQTPGQAPRALIYSTNDRHSGVPSRFSGSISGNKAALTITGAQPEDEADYYCALDIGDITEFGGGTHLTVLG

B12: 61H7 antibody (antibody, V domains shown)
VH: EVQLVESGGGLVQPGGSLRLSCAASGFTFSSYRMYWVRQPPGKGLEWVSAISAGGGSTYYGDSVKGRFTISRDNAKNTVYLQMNSLKPEDTAVYYCANRAGWGMGDYWGQGTQVTVSS
VL: QTVVTQEPSLSVSPGGTVTLTCGLSSGSVTASNYPGWFQQTPGQAPRALIYSTNDRHSGVPSRFSGSISGNKAALTITGAQPEDEADYYCALDIGDITEFGGGTHLTVLG
- IC50, growth of IL-6-dependent 7TD1 cells with 75 pg/ml human IL-6 (human IL-6 [7]): < 0.001 nM

- Average binding (RU) [8]: 597 RU
- Kd [9]: 0.16 nM
- koff [9]: 5.7e-05 s⁻¹
- kon [9]: 350000 M⁻¹ s⁻¹
- Kd [10]: 0.2 nM
- koff [10]: 6.6e-05 s⁻¹
- kon [10]: 330000 M⁻¹ s⁻¹
B13: 61B7 (Fab, V domains shown)
VH: ELQLVESGGGLVQPGGSLRLSCAASGFTFSSYAMSWVRQAPGKGPEWVSRISSGGGSAYYADSVKGRFTISRDNAKNTLYLQMNSLKPEDTAVYYCANRAGWGMGDYWGQGTQVTVSS
VL: QTVVTQEPSLSVSPGGTVTLTCGLSSGSVTASNYPGWFQQTPGQAPRALIYSTNDRHSGVPSRFSGSISGNKAALTITGAQPEDEADYYCALDIGDITEFGGGTHLTVLG
notes: Fab

- koff [3]: 0.000112 s⁻¹
- koff [4]: 7.52e-05 s⁻¹
- ratio bact/euk [5]: 0.96
- average binding (human IL-6 [6]): 46
B14: Fab 24G3 (Fab, V domains shown)
VH: QLQVVESGGGLVQPGSSLRLSCGASGFTFSSHRMYWVRQPPGKGLEWVSAISSSGVSTYYADSVKGRFTISRDNAKNTVYLQMNSLKPEDTALYYCKRRTWYGGEYDYWGQGTQVTVSS
VL: QTVVTQEPSLSVSPGGTVTLTCGLSSGSVTASNYPGWFQQTPGQAPRALIYSTNDRHSGVPSRFSGSISGNKAALTITGAQPEDEADYYCALDIGDITEFGGGTHLTVLG
notes: Fab; also called 28g12(24G3)

- Kd [9]: 0.5 nM
- koff [9]: 0.0001 s⁻¹
- kon [9]: 210000 M⁻¹ s⁻¹
- Kd [10]: 0.41 nM
- koff [10]: 0.0001 s⁻¹
- kon [10]: 250000 M⁻¹ s⁻¹
B15: 24D10 (Fab, V domains shown)
VH: QLQVVESGGGLVQPGGSLRLSCAASGFTFSSYAMSWVRQAPGKGPEWVSRISSGGGSTSYADSVKGRFTISRDNAKNTLYLQMNSLKPEDTAVYYCANRAGWGMGDYWGQGTQVTVSS
VL: QTVVTQEPSLSVSPGGTVTLTCGLSSGSVTASNYPGWFQQTPGQAPRALIYSTNDRHSGVPSRFSGSISGNKAALTITGAQPEDEADYYCALDIGDITEFGGGTHLTVLG
notes: Purified Fab

- Kd [9]: 0.017 nM
- koff [9]: 2e-06 s⁻¹
- kon [9]: 120000 M⁻¹ s⁻¹
- Kd [10]: 0.45 nM
- koff [10]: 5.5e-05 s⁻¹
- kon [10]: 120000 M⁻¹ s⁻¹
B16: 61H7 (Fab, V domains shown)
VH: EVQLVESGGGLVQPGGSLRLSCAASGFTFSSYRMYWVRQPPGKGLEWVSAISAGGGSTYYGDSVKGRFTISRDNAKNTVYLQMNSLKPEDTAVYYCANRAGWGMGDYWGQGTQVTVSS
VL: QTVVTQEPSLSVSPGGTVTLTCGLSSGSVTASNYPGWFQQTPGQAPRALIYSTNDRHSGVPSRFSGSISGNKAALTITGAQPEDEADYYCALDIGDITEFGGGTHLTVLG
notes: Fab; also called Fab 61H7
